Experimental data: PMC7704052

Biological target: Flag-tagged MxA wildtype (human myxovirus resistance protein A) (human) (UniProt P20591)

SiAr126 nucleoprotein (NP), wildtype, from expression plasmid (natural protein)
SiAr126 polymerase reconstitution (minigenome firefly luciferase) in 293T cells: inhibition by co-expressed MxA compared with the inactive MxA(T103A): 90%
